Reference: US20230312678A1
Like-named read-outs stand apart in the source and are kept apart here.

Experiments:
[1] = biological target: ED-tagged full-length PD-1 receptor stably expressed in Jurkat cells (PathHunter PD-1 Signaling Bioassay, DiscoverX) (UniProt Q15116); assay: cell-based or functional assay
[2] = biological target: ED-tagged full-length PD-1 receptor stably expressed in Jurkat cells (PathHunter PD-1 Signaling Bioassay, DiscoverX) (UniProt Q15116); assay: cell-based or functional assay; remark: listed apart in the source

Sequence of UniProt Q15116 (Q15116 25-288): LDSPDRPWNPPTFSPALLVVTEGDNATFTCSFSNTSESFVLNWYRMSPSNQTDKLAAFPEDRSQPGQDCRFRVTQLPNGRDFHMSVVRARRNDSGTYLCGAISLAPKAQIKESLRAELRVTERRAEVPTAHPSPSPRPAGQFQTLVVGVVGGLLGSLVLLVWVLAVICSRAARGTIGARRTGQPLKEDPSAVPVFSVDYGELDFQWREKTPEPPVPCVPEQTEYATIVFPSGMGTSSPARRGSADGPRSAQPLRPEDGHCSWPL

Row | Relative Light Units (RLU), modified PathHunter PD-1 Signaling Bioassay; fold against soluble PD-L2-Fc [1] | Relative Light Units (RLU), modified PathHunter PD-1 Signaling Bioassay; fold against soluble PD-L2-Fc [2] | Relative Light Units (RLU), modified PathHunter PD-1 Signaling Bioassay; fold against soluble PD-L1-Fc [1] | Relative Light Units (RLU), modified PathHunter PD-1 Signaling Bioassay; fold against soluble PD-L1-Fc [2] | Substance
1 | 1000 fold | 10000 fold |  |  | hPD-L2-Fc-GPI artificial synapses engineered from exosomes (hPDL2-Fc-GPI fusion polypeptide displayed on the exosome surface) (Fc fusion)
2 |  |  | 1000 fold | 10000 fold | hPD-L1-Fc-GPI artificial synapses engineered from exosomes (hPDL1-Fc-GPI fusion polypeptide displayed on the exosome surface) (Fc fusion)
